Substitutions are numbered along the chain they refer to.

The labels stand for the following.
B1: 17B11 (antibody, mouse IgG1, kappa)
heavy: QVTLKESGPGILQPSQTLSLTCSFSGFSLSTSGMGVSWIRQPSGKGLEWLAHNDWDDDKRYKSSLKSRLTISKDTSRNQVFLKITSVDTADTATYYCARRVGGLEGYFDYWGQGTTLTVSSAKTTPPSVYPLAPGSAAQTNSMVTLGCLVKGYFPEPVTVTWNSGSLSSGVHTFPAVLQSDLYTLSSSVTVPSSTWPSETVTCNVAHPASSTKVDKKIVPRDCGCKPCICTVPEVSSVFIFPPKPKDVLTITLTPKVTCVVVDISKDDPEVQFSWFVDDVEVHTAQTQPREEQFNSTFRSVSELPIMHQDWLNGKEFKCRVNSAAFPAPIEKTISKTKGRPKAPQVYTIPPPKEQMAKDKVSLTCMITDFFPEDITVEWQWNGQPAENYKNTQPIMDTDGSYFVYSKLNVQKSNWEAGNTFTCSVLHEGLHNHHTEKSLSHSPGK
light: DIVLTQSPASLAVSLGQRATISCRASQSVSTSRFSYMHWFQQKPGQAPKLLIKYASNLESGVPARFSGSGSGTDFTLNIHPVEGEDTATYYCQHSWEIPYTFGGGTKLEIKRADAAPTVSIFPPSSEQLTSGGASVVCFLNNFYPKDINVKWKIDGSERQNGVLNSWTDQDSKDSTYSMSSTLTLTKDEYERHNSYTCEATHKTSTSPIVKSFNRNEC
notes: Murine monoclonal from hybridoma, IgG1 kappa; also called antibody 17B11
B2: 04F08 (antibody, mouse IgG1, kappa)
heavy: QVTLKESGPGILQPSQTLSLTCSFSGFSLSTYGMGVTWIRQPSGKGLEWLAHIYWDDDKRYNPSLKSRLTISKDTSNNQVFLKITSVDTADTATYYCAQTGYSNLFAYWGQGTLVTVSAAKTTPPSVYPLAPGSAAQTNSMVTLGCLVKGYFPEPVTVTWNSGSLSSGVHTFPAVLQSDLYTLSSSVTVPSSTWPSETVTCNVAHPASSTKVDKKIVPRDCGCKPCICTVPEVSSVFIFPPKPKDVLTITLTPKVTCVVVDISKDDPEVQFSWFVDDVEVHTAQTQPREEQFNSTFRSVSELPIMHQDWLNGKEFKCRVNSAAFPAPIEKTISKTKGRPKAPQVYTIPPPKEQMAKDKVSLTCMITDFFPEDITVEWQWNGQPAENYKNTQPIMDTDGSYFVYSKLNVQKSNWEAGNTFTCSVLHEGLHNHHTEKSLSHSPGK
light: DIVMTQSQKFMSTSVGDRVSVTCKASQNVGTNVAWYQQKLGQSPKTLIYSASYRYSGVPDRFTGSGSGTDFTLTISNVQSEDLAEYFCQQYNSYPYTFGGGTKLEIKRADAAPTVSIFPPSSEQLTSGGASVVCFLNNFYPKDINVKWKIDGSERQNGVLNSWTDQDSKDSTYSMSSTLTLTKDEYERHNSYTCEATHKTSTSPIVKSFNRNEC
notes: Murine monoclonal from hybridoma, IgG1 kappa; also called antibody 04F08
B3: 08G01 (antibody, mouse IgG2b, kappa)
heavy: EVLLQQSGPEVVKPGASVKIPCKASGYTFTDYNMDWVKQSHGKSLEWIGEINPNNGGTFYNQKFKGKATLTVDKSSSTAYMELRSLTSEDTAVYYCAREAITTVGAMDYWGQGTSVTVSSAKTTPPSVYPLAPGCGDTTGSSVTLGCLVKGYFPESVTVTWNSGSLSSSVHTFPALLQSGLYTMSSSVTVPSSTWPSQTVTCSVAHPASSTTVDKKLEPSGPISTINPCPPCKECHKCPAPNLEGGPSVFIFPPNIKDVLMISLTPKVTCVVVDVSEDDPDVQISWFVNNVEVHTAQTQTHREDYNSTIRVVSTLPIQHQDWMSGKEFKCKVNNKDLPSPIERTISKIKGLVRAPQVYILPPPAEQLSRKDVSLTCLVVGFNPGDISVEWTSNGHTEENYKDTAPVLDSDGSYFIYSKLNMKTSKWEKTDSFSCNVRHEGLKNYYLKKTISRSPGK
light: DIQMTQSPASLSASVGETVTITCRASGNIHNYLAWYQQKQGKSPQLLVYNAKTLADGVPSRFSGSGSGTQYSLKINSLQPEDFGSYYCQHFWSSPYTFGGGTKLEIKRADAAPTVSIFPPSSEQLTSGGASVVCFLNNFYPKDINVKWKIDGSERQNGVLNSWTDQDSKDSTYSMSSTLTLTKDEYERHNSYTCEATHKTSTSPIVKSFNRNEC
notes: Murine monoclonal from hybridoma, IgG2b kappa; also called antibody 08G01
B4: Hu01G06-138 (antibody, human IgG1, kappa)
heavy: not shown
light: DIQMTQSPSSLSASVGDRVTITCRTSENLHNYLAWYQQKPGKAPKLLIYDAKTLADGVPSRFSGSGSGTDYTLTISSLQPEDFATYYCQHFWSSPYTFGQGTKLEIKRTVAAPSVFIFPPSDEQLKSGTASVVCLLNNFYPREAKVQWKVDNALQSGNSQESVTEQDSKDSTYSLSSTLTLSKADYEKHKVYACEVTHQGLSSPVTKSFNRGEC
B5: Hu01G06-127 (antibody, human IgG1, kappa)
heavy: not shown
light: B4 light with A43S, S94D
B6: Hu01G06-135 (antibody, human IgG1, kappa)
heavy: not shown
light: B4 light
B7: Hu01G06-122 (antibody, human IgG1, kappa)
heavy: not shown
light: B4 light

The target of the first assay is T1, mouse IgG1 Fc-mature human GDF15 fusion protein (mFc-rhGDF15) (mouse; human).
T1 construct: Made in CHOK1SV cells, purified by Protein A and size exclusion; also called mouse Fc fused to human GDF15
T1 chain: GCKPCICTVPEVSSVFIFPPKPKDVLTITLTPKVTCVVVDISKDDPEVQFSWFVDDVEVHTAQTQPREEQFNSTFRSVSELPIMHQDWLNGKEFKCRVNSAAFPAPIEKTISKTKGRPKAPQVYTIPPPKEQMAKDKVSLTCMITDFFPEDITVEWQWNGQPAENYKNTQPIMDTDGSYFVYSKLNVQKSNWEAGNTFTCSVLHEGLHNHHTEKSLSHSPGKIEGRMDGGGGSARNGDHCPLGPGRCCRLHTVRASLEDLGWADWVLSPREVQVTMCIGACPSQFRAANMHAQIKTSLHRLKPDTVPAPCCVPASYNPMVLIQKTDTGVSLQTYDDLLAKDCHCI
The assay can be described thus: SPR Biacore T100, 37 C, antibody captured by anti-mouse IgG, antigen in solution. The method, then:
Rabbit anti-mouse IgGs (GE Healthcare) were immobilized on carboxymethylated dextran CM4 sensor chips (GE Healthcare) by amine coupling, according to a standard protocol. Analyses were performed at 37° C. using PBS containing 0.05% surfactant P20 as running buffer. The antibodies were captured in individual flow cells at a flow rate of 10 μL/minute. Injection time was varied for each antibody to yield an Rmax between 30 and 60 RU. 250 μg/mL mouse Fc (Jackson ImmunoResearch, West Grove, Pa.) was injected at 30 μL/minute for 120 seconds to block non-specific binding of capture antibodies to mouse Fc portion of the recombinant GDF15 protein when needed. […] The dissociation phase was monitored for up to 1500 seconds. The surface was then regenerated with two 60-second injections of 10 mM Glycine-HCl, pH 1.7, at a flow rate of 30 μL/minute.
Kinetic parameters were determined using the kinetic function of the BIAevaluation software (GE Healthcare) with double reference subtraction.
A general note: Surface plasmon resonance follows binding to a sensor surface in real time, without labels.
Take B1: the Kd was 0.14 nM, the koff stood at 0.00051 s⁻¹ and the kon is 3.7e+06 M⁻¹ s⁻¹.
The corresponding values for B2 are 0.19 nM, 0.00064 s⁻¹ and 3.6e+06 M⁻¹ s⁻¹.
The corresponding values for B3 are 0.19 nM, 0.0011 s⁻¹ and 6e+06 M⁻¹ s⁻¹.

The target of a further assay is T2, rabbit IgG1 Fc-mature mouse GDF15 fusion protein (rFc-rmGDF15) (rabbit; mouse).
T2 construct: also called rabbit Fc mature recombinant mouse GDF15
T2 chain: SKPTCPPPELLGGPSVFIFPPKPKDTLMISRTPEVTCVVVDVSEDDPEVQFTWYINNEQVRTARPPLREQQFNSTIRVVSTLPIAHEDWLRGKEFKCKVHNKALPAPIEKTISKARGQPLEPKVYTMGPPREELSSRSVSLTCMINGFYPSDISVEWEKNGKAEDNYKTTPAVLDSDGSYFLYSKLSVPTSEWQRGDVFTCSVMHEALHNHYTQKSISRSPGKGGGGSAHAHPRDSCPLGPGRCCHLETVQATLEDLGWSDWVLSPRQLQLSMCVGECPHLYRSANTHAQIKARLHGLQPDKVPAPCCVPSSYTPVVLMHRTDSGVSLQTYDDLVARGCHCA
As to the kind of experiment: SPR Biacore T100, 37 C, purified antibody captured by anti-human IgG Fc, antigen in solution. The procedure:
(§1) Goat anti-human IgGs (Fc fragment specific, Jackson ImmunoResearch, West Grove, Pa.) were immobilized on carboxymethylated dextran CM4 sensor chips by amine coupling, according to a standard protocol. Analyses were performed at 37° C. using PBS containing 0.05% surfactant P20 as running buffer. The antibodies were captured in individual flow cells at a flow rate of 10 μL/minute. Injection time was varied for each antibody to yield an Rmax between 30 and 60 RU. […] The dissociation phase was monitored for up to 1500 seconds. The surface was then regenerated with two 60-second injections of 10 mM Glycine-HCl, pH 2.25, at a flow rate of 30 μL/minute.
(§2) Kinetic parameters were determined using the kinetic function of the BIAevaluation software (GE Healthcare) with double reference subtraction. Kinetic parameters for each antibody, kₐ (association rate constant), kd (dissociation rate constant), and KD (equilibrium dissociation constant) were determined Kinetic values of purified monoclonal antibodies on mFc-rhGDF15, mature human GDF15, rFc-rmGDF15, and mFc-rcGDF15 are summarized in Table 27.
Take B4: the affinity, expressed as Kd, was 0.044 nM; the koff is 0.0008 s⁻¹; the association rate constant (kon) stood at 1.9e+07 M⁻¹ s⁻¹.
B5: the Kd is 0.051 nM, the koff stood at 0.0021 s⁻¹ and the kon was 3.9e+07 M⁻¹ s⁻¹.
The corresponding values for B6 are 0.055 nM, 0.0019 s⁻¹ and 3.7e+07 M⁻¹ s⁻¹.
The corresponding values for B7 are 0.063 nM, 0.0014 s⁻¹ and 2.2e+07 M⁻¹ s⁻¹.

In another assay the target is T3, mouse Fc mature recombinant cynomolgus monkey GDF15 (mFc-rcGDF15) (mouse; cynomolgus monkey, UniProt G7PWZ3 193-308).
T3 construct: mature; not shown: mouse Fc and any linker
T3 sequence (looked up): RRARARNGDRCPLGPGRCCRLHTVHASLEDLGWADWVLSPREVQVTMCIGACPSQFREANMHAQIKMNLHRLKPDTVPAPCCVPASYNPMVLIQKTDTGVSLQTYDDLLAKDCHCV
Described as above. The method, then: as §1, §2
For B4, the dissociation constant (Kd) came out at 0.025 nM, the koff was 5.3e-05 s⁻¹ and the kon was found to be 2.3e+06 M⁻¹ s⁻¹.
On the same counts, the results for B5 are 0.0095 nM, 1.6e-05 s⁻¹ and 1.8e+06 M⁻¹ s⁻¹.
The corresponding values for B6 are 0.038 nM, 7.9e-05 s⁻¹ and 2.2e+06 M⁻¹ s⁻¹.
The corresponding values for B7 are 0.01 nM, 2.4e-05 s⁻¹ and 2.3e+06 M⁻¹ s⁻¹.

In a further assay the target is T1, mouse IgG1 Fc-mature human GDF15 fusion …. The description is as above. The procedure:
as §1, §2
In turn, B4 had a Kd of 0.011 nM, a koff of 4.1e-05 s⁻¹ and a kon of 5.9e+06 M⁻¹ s⁻¹.
On the same counts, the results for B5 are 0.018 nM, 4.2e-05 s⁻¹ and 4.6e+06 M⁻¹ s⁻¹.
The corresponding values for B6 are 0.014 nM, 4.4e-05 s⁻¹ and 5.3e+06 M⁻¹ s⁻¹.
On the same counts, the results for B7 are 0.0065 nM, 2.1e-05 s⁻¹ and 5.9e+06 M⁻¹ s⁻¹.

The next assay concerns the target T4, cleaved-rhGDF15 (human, UniProt Q99988 197-308).
T4 sequence: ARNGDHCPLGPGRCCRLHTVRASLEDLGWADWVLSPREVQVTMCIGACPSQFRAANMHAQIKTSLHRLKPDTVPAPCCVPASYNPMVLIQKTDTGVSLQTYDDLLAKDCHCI
Described as above. The procedure:
as §1, §2
B4 came in with a Kd of 0.0045 nM, a koff of 2.5e-05 s⁻¹ and a kon of 7.9e+06 M⁻¹ s⁻¹.
The molecule B5 displayed a dissociation constant (Kd) of 0.01 nM, a koff of 3.6e-05 s⁻¹ and a kon of 6.1e+06 M⁻¹ s⁻¹.
On the same counts, the results for B6 are 0.01 nM, 6.2e-05 s⁻¹ and 7.3e+06 M⁻¹ s⁻¹.
The corresponding values for B7 are 0.0079 nM, 3.4e-05 s⁻¹ and 7.9e+06 M⁻¹ s⁻¹.

By Kd is commonly meant the concentration at which binding is half-saturated. In general, koff refers to the rate constant with which the complex falls apart. What is called kon is the second-order rate constant of association.
